Publication PMC8567202, “Phosphoinositide-binding activity of Smad2 is essential for its function in TGF-β signaling” (The Journal of Biological Chemistry, 2021)
“Also recorded” adds a separate entry of the source.

What was measured:
[1] = SPR membrane binding to POPC/POPS/PI(4,5)P2 vesicles; settings: SPR; for affinity for POPC/POPS/PI(4,5)P2 (77:20:3) relative to WT: Kd comparison, in words; for Kd: L1 chip, 23 °C, 20 mM Tris, pH 7.4, 0.16 M NaCl, POPC/POPS/PI(4,5)P2 (77:20:3), average ±S.D., n = 3, read-out: Kd for lipid binding, PC/PS/PI(4,5)P2; for PI(4,5)P2 selectivity over POPC/POPS (80:20) / binding to POPC/POPS/PI(4,5)P2 (77:20:3): RU/RUmax, 100 nM protein
Excerpt: It has been generally thought that Smad2 and Smad3 are targeted to the activated TGF-β signaling complex by direct interaction with TβRI ([1], [2]) or via SARA ([7]). However, it has been shown that many cytosolic proteins that are targeted to membrane proteins or membrane-anchored signaling complexes have affinity for membrane lipids ([14]), phosphoinositides (PtdInsPs) in particular, and that their membrane recruitment is mediated by coincident lipid–protein and protein–protein interactions ([15], [16]). For most of these proteins, their PtdInsP specificity directs their membrane targeting behaviors: e.g., PI(4,5)P2-specific proteins are recruited to PM where the highest concentration of PI(4,5)P2 is found, whereas PI(3)P-specific proteins are targeted to PI(3)P-rich EEs ([17], [18]). To resolve uncertainty about the functional location of the activated TGF-β signaling complex, we thus explored the possibility that lipid-binding activity of Smad2 may play a role in specific targeting of Smad2 to the active TGF-β receptor complex either at the PM or at EEs. Lipid-binding activity of Smad proteins has not been reported to date. We thus measured the binding of bacterially expressed Smad2 to large unilamellar vesicles (LUVs) containing various lipids by surface plasmon resonance (SPR) analysis ([19], [20]). Lipid selectivity determined by SPR analysis is typically reported as the relative resonance unit (RU) values for different lipids at a given protein concentration ([21], [22]). Although simple and intuitive, this type of analysis can sometimes yield misleading and erroneous results because some proteins show widely different RU values when bound to different lipid surfaces. Thus, a more reliable parameter that represents the fraction of the membrane bound protein molecules at a given protein concentration would be a normalized value of RU/RUmax where RUmax indicates the maximal RU value when a given lipid surface is saturated with the protein molecules. We thus estimated RUmax for different lipid species by employing the highest protein concentration experimentally feasible (e.g., 1 μM) and determined RU/RUmax for different lipids at the protein concentration that allows robust comparison (e.g., 100 nM). Once the lipid selectivity has been determined by this semiquantitative approach, we then rigorously determined and compared Kd values for selected lipids for more accurate quantitative determination of lipid selectivity.
Figure 1 Membrane-binding properties of Smad2 FL protein and MH2 domain determined by SPR analysis.A, PtdInsP selectivity of Smad2-FL determined using POPC/POPS/PtdInsP (77:20:3 in mole ratio) LUVs coated on the L1 sensor chip. The protein concentration was 100 nM. PIP3 indicates PI(3,4,5)P3. B, determination of Kd for binding of Smad2 FL to different LUVs. The protein concentration was varied from 0 to 500 nM. C, PI(4,5)P2 concentration dependence of membrane binding of Smad2-FL determined using POPC/POPS/PI(4,5)P2 (77-x:20:x, x = 0–5 mol%) LUVs. The protein concentration was 100 nM. D, PtdInsP selectivity of the Smad2 MH2 domain determined using POPC/POPS/PtdInsP (77:20:3 in mole ratio) LUVs. The protein concentration was 100 nM. Normalized RU values (RU/RUmax) were used for all figures but (C) for more accurate determination of PtdInsP selectivity. RUmax values determined for different vesicles at 1 μM Smad2 were: 280 ± 20 for POPC/POPS/PI(4,5)P2 (77:20:3), 370 ± 10 for POPC/POPS/PI(3,4)P2 (77:20:3), 400 ± 15 for POPC/POPS/PI(3,4,5)P3 (or PIP3) (77:20:3), 400 ± 20 for POPC/POPS/PI(3)P (77:20:3), and 380 ± 20 for POPC/POPS (80:20). Only the association phases of the sensorgrams are shown and used for further analysis. Each set of sensorgrams shown in A and D are representatives of >5 independent measurements. Data points shown in B and C are the average ±S.D. values from triplicate measurements. […]

[2] = test system: Smad2 transcriptional activity; assay: Dual luciferase reporter assay for Smad2 transcriptional activity; type: cell-based; settings: Smad2-suppressed HeLa cells, luciferase, 10 ng/ml TGF-β for 48 h
Description: Two separate gels were used to accommodate all mutants. An empty vector transfection (vehicle) was used for a negative control for each gel. Glyceraldehyde 3-phosphate dehydrogenase (GAPDH) was used as a gel loading control. Data in A and B are quantified in Fig. S3A. C, TGF-β stimulated (10 ng/ml for 1 h) nuclear translocation of mouse EGFP-WT, -K420A, -W422A, -E425K, -Y426A, and -R427A/R428A transfected into HeLa cells whose endogenous Smad2 was suppressed by siRNA. For Smad2-WT, the effect of PI(4,5)P2 depletion was measured. Arrows indicate nuclear accumulation of EGFP-WT and EGFP-E425K. Scale bars indicate 10 μm. D, quantification of (C). (Inuc/Icyto) was calculated from total nuclear and cytosolic fluorescence intensity values. Blank and black bars indicate values before and after TGF-β stimulation. Error bars indicate S.D. values from >3 measurements (n = 10). E, Smad2 transcriptional activity measured by the luciferase assay. Blank and black bars indicate values before and after TGF-β stimulation. Error bars indicate S.D. values from >3 measurements (n = 10).
HeLa cells were plated on 6-well plates at the density of ∼1.5 × 10^5 and treated with siRNA as described above. The reporter gene containing three TGF-β/activin response element (ARE) coupled with the luciferase gene (pGL2 3ARE-Lux: Addgene) was used for enhanced activity ([55]). On translocation into the nucleus, receptor-activated Smad2 associates with the DNA-binding protein FAST1 to form a transcriptional complex on the ARE of the Mix.2 promoter. After 24 h, the cell media were replaced with fresh media and cells were cotransfected with 375 ng pGL2 3ARE-Lux experimental vector, 37.5 ng pGL4.73[hRluc/SV40] internal control vector (Promega), 337.5 ng FAST1, and 750 ng of pcDNA 3.1 plasmid harboring Smad2 WT or mutant using the jetPRIME transfection system (Polyplus transfection) according to the manufacturer's protocols. After 24 h of transfection, cells were placed in fresh media and stimulated with 10 ng/ml TGF-β for 48 h. Then the cells were washed with phosphate buffer saline, and the dual luciferase reporter assay was performed according to the manufacturer's protocols (Promega). All 3ARE-Luc activity values were normalized using the pGL4.73[hRluc/SV40] values as a reference.

Molecule | affinity for POPC/POPS/PI(4,5)P2 (77:20:3) relative to WT [1] | Kd [1] [µM] | PI(4,5)P2 selectivity over POPC/POPS (80:20) [1] | binding to POPC/POPS/PI(4,5)P2 (77:20:3) [1] | Smad2 transcriptional activity after TGF-β stimulation [2] | lower affinity for POPC/POPS/PI(4,5)P2 (77:20:3) than WT ([1]; decrease in affinity vs WT) [%]
Smad2-W422A: W422A mutant of full-length Smad2; specific PI(4,5)P2 binding-compromised (protein, left off: His6, N-terminal, state not stated) MSSILPFTPPVVKRLLGWKKSAGGSGGAGGGEQNGQEEKWCEKAVKSLVKKLKKTGRLDELEKAITTQNCNTKCVTIPSTCSEIWGLSTANTVDQWDTTGLYSFSEQTRSLDGRLQVSHRKGLPHVIYCRLWRWPDLHSHHELKAIENCEYAFNLKKDEVCVNPYHYQRVETPVLPPVLVPRHTEILTELPPLDDYTHSIPENTNFPAGIEPQSNYIPETPPPGYISEDGETSDQQLNQSMDTGSPAELSPTTLSPVNHSLDLQPVTYSEPAFWCSIAYYELNQRVGETFHASQPSLTVDGFTDPSNSERFCLGLLSNVNRNATVEMTRRHIGRGVRLYYIGGEVFAECLSDSAIFVQSPNCNQRYGWHPATVCKIPPGCNLKIFNNQEFAALLAQSVNQGFEAVYQLTRMCTIRMSFVKGAGAEYRRQTVTSTPCWIELHLNGPLQWLDKVLTQMGSPSVRCSSMS | three- to five-fold lower affinity | 0.47 ± 0.096 | essentially no PI(4,5)P2 selectivity; also recorded: lost the PI(4,5)P2 selectivity | greatly reduced binding | much reduced activity even after TGF-β stimulation | –
Smad2- R427A/R428A: double mutant of full-length Smad2; PI(4,5)P2 and TβRI binding-compromised (protein, left off: His6, N-terminal, state not stated) MSSILPFTPPVVKRLLGWKKSAGGSGGAGGGEQNGQEEKWCEKAVKSLVKKLKKTGRLDELEKAITTQNCNTKCVTIPSTCSEIWGLSTANTVDQWDTTGLYSFSEQTRSLDGRLQVSHRKGLPHVIYCRLWRWPDLHSHHELKAIENCEYAFNLKKDEVCVNPYHYQRVETPVLPPVLVPRHTEILTELPPLDDYTHSIPENTNFPAGIEPQSNYIPETPPPGYISEDGETSDQQLNQSMDTGSPAELSPTTLSPVNHSLDLQPVTYSEPAFWCSIAYYELNQRVGETFHASQPSLTVDGFTDPSNSERFCLGLLSNVNRNATVEMTRRHIGRGVRLYYIGGEVFAECLSDSAIFVQSPNCNQRYGWHPATVCKIPPGCNLKIFNNQEFAALLAQSVNQGFEAVYQLTRMCTIRMSFVKGWGAEYAAQTVTSTPCWIELHLNGPLQWLDKVLTQMGSPSVRCSSMS | three- to five-fold lower affinity | 0.34 ± 0.053 | essentially no PI(4,5)P2 selectivity; also recorded: lost the PI(4,5)P2 selectivity | greatly reduced binding | much reduced activity even after TGF-β stimulation | –
Smad2-K420A: K420A mutant of full-length Smad2; predominantly TβRI binding-compromised (protein, left off: His6, N-terminal, state not stated) MSSILPFTPPVVKRLLGWKKSAGGSGGAGGGEQNGQEEKWCEKAVKSLVKKLKKTGRLDELEKAITTQNCNTKCVTIPSTCSEIWGLSTANTVDQWDTTGLYSFSEQTRSLDGRLQVSHRKGLPHVIYCRLWRWPDLHSHHELKAIENCEYAFNLKKDEVCVNPYHYQRVETPVLPPVLVPRHTEILTELPPLDDYTHSIPENTNFPAGIEPQSNYIPETPPPGYISEDGETSDQQLNQSMDTGSPAELSPTTLSPVNHSLDLQPVTYSEPAFWCSIAYYELNQRVGETFHASQPSLTVDGFTDPSNSERFCLGLLSNVNRNATVEMTRRHIGRGVRLYYIGGEVFAECLSDSAIFVQSPNCNQRYGWHPATVCKIPPGCNLKIFNNQEFAALLAQSVNQGFEAVYQLTRMCTIRMSFVAGWGAEYRRQTVTSTPCWIELHLNGPLQWLDKVLTQMGSPSVRCSSMS | – | 0.12 ± 0.012 | – | modestly and similarly reduced binding to both vesicles | much reduced activity even after TGF-β stimulation | 20
Smad2-Y426A: Y426A mutant of full-length Smad2; specific PI(4,5)P2 binding-compromised (protein, left off: His6, N-terminal, state not stated) MSSILPFTPPVVKRLLGWKKSAGGSGGAGGGEQNGQEEKWCEKAVKSLVKKLKKTGRLDELEKAITTQNCNTKCVTIPSTCSEIWGLSTANTVDQWDTTGLYSFSEQTRSLDGRLQVSHRKGLPHVIYCRLWRWPDLHSHHELKAIENCEYAFNLKKDEVCVNPYHYQRVETPVLPPVLVPRHTEILTELPPLDDYTHSIPENTNFPAGIEPQSNYIPETPPPGYISEDGETSDQQLNQSMDTGSPAELSPTTLSPVNHSLDLQPVTYSEPAFWCSIAYYELNQRVGETFHASQPSLTVDGFTDPSNSERFCLGLLSNVNRNATVEMTRRHIGRGVRLYYIGGEVFAECLSDSAIFVQSPNCNQRYGWHPATVCKIPPGCNLKIFNNQEFAALLAQSVNQGFEAVYQLTRMCTIRMSFVKGWGAEARRQTVTSTPCWIELHLNGPLQWLDKVLTQMGSPSVRCSSMS | three- to five-fold lower affinity | 0.4 ± 0.044 | essentially no PI(4,5)P2 selectivity; also recorded: lost the PI(4,5)P2 selectivity | greatly reduced binding | much reduced activity even after TGF-β stimulation | –
